“Also recorded” adds a separate entry of the source.
How the values were obtained:
BxPC-3 tumor = assay: Xenograft human pancreatic tumor model; format: in vivo, mice; settings: BxPC-3 tumor sections, FIGS. 6E and 6F
Experimental: (iv) Xenograft Human Pancreatic Tumor Model Human pancreatic tumor cells BxPC-3 and MiaPaCa cells were re-suspended in PBS and injected subcutaneously (s.c.) (5×10^6 cells, total volume 0.15 mL) into the right flank of mice. […] Mice body weights and the tumor sizes were measured twice a week. Tumor sizes were measured using a caliper, and the tumor volume was calculated by […]. After the experiment, all mice were sacrificed, mice blood samples were collected and the tumor masses were removed and weighted. The differences in mean tumor volume and tumor weight were evaluated by Student's t-test. […] Results (i) FB704 Inhibits In Vivo Angiogenesis in a Matrigel Assay
FB704 enhanced the anti-tumor activity of Oxaliplatin or Gemcitabine in a human pancreatic cancer model.

[1] = test system: IL6-induced phosphorylated STAT3 in U266 cells; assay: Cell signaling transduction assay (P-STAT3 western blot); format: cell-based, human; settings: for STAT3 phosphorylation inhibition percentage of control: rhIL6; for suppression of phosphorylated-STAT3 signaling: western blot, FIG. 1A/1B
Experimental: U266 cells (1×10^6/ml) were washed twice with serum-free RPMI 1640 and cultured for 2 h in the absence of fetal bovine serum and growth factors. Cells were stimulated with rhIL6 (5 ng/ml) for 30 min at 37° C. and then treated with or without anti-IL6 antibodies. Cells were washed with ice-cold PBS, and then lysed in RIPA buffer (Thermo) supplemented with protease and phosphatase inhibitor (Roche). Western blot analysis was performed using anti-pSTAT3, and anti-STAT3 (Cell Signaling Technology) antibodies. After incubating with HRP-labeled goat anti-rabbit (Thermo) or HRP-labeled goat anti-mouse antibody (Thermo), the membranes were developed by enhanced chemiluminescence (GE Healthcare).
Human multiple myeloma U266 cells were used to examine the effect of anti-IL6 antibodies on IL6-induced signaling cascade. U266 cells were cultured in the presence or absent of antibodies, together with rhIL6. After 30 minutes, whole cell lysates were collected and western blot analysis was performed to examine phosphorylated STAT3 protein (P-STAT3), which is a major transcription factor involved in the IL6 signaling pathway. […] (FIGS. 1A and 1B).

[2] = test system: human prostate cancer PC-3 cell; assay: Prostate PC3 tumor metastasis and cachexia, intrasplenic implantation model; settings: for total body weights (cachexia): day 31 after PC-3 implantation, 20 mg/kg i.v. twice a week, P<0.01; for symptom-free survival of PC3 tumor-bearing mice: repetitive injections, Kaplan-Meier, FIG. 5B
Experimental: The body weights of those mice were measured twice a week.
All mice were then euthanized by CO2 asphyxiation and body weights were determined. Primary tumors in the spleen and liver were excised, photographed, and weighed. Organ index was expressed as milligram organ per gram mouse. Mean+SD were calculated using Student's t-test. The survival assay was used Kaplan-Meier analysis. Paraffin-embedded or frozen section of tumor masses were prepared and stained by anti-CD31 and Ki-67 plus Hematoxylin staining for analysis.
To verify the efficacy of FB704 on cancer induced cachexia and metastasis, mice were implanted with human prostate cancer PC-3 cell (1.0×10^6 per mouse) by intrasplenic injection. On day 1, the mice were randomized into 4 groups (n=12-15). High (20 mg/kg) and low (5 mg/kg) dose of FB704, positive control Actemra (20 mg/kg) and PBS were administered via i.v. (intravenous) injection twice a week.

recombinant human IL6 = biological target: T1, recombinant human IL6 (Homo sapiens, UniProt P05231); assay: BIAcore analysis of IgG binding affinity; settings: for Ka: association rate constant, captured IgG, BIAcore T200; for Kd: dissociation rate constant
T1 construct: purchased R&D Systems
Experimental: IgG binding affinity was measured by using human antibody capture kit (GE healthcare) in BIAcore T200 system (GE healthcare). The mouse anti-human IgG was immobilized on a CMS sensor chip via amine coupling. Approximately 700 RU of purified anti-IL6 IgG in HBS-EP+ buffer were captured onto the immobilized surface. The recombinant human IL6 (R&D Systems) at concentrations ranging from 25.6 nM to 0.4 nM in HBS-EP+ buffer was injected for 2 minutes using a flow rate of 30 μl/min. Dissociation of bound antigen in HBS^−EP^+ buffer flow was followed for 7 minutes. The surfaces IgG were regenerated after each cycle using regeneration solution (3M MgCl2). The dissociation constant (KD) was calculated as kd/ka.

[3] = test system: IL6 plus sIL6R induced MCP-1 and sICAM-1 in HUVECs; assay: MCP-1 and sICAM-1 production in HUVEC cells (ELISA); format: cell-based, human; settings: 24 h; for inhibition of IL6+sIL6R induced MCP-1 secretion: FIG. 2A; for inhibition of sICAM-1 production: FIG. 2B
Experimental: To examine the effectiveness of the anti-IL6 antibodies described herein in treating rheumatoid arthritis (RA), monocyte chemotactic protein-1 (MCP-1) and sICAM-1 secretion by Human Umbilical Vein Endothelial Cells (HUVECs) were measured after antibody treatment as follows. The HUVEC cells were plated in a 48-well plate at a density of 2×10^5 cells/ml. The cells were treated with a combination of recombinant human IL6, IL6 receptor-α (R&D systems) with or without anti-IL6 antibodies at various concentrations or the control IgG antibody at 37° C. for 24 h. Cell free culture supernatants were collected and analysis for MCP-1 and sICAM-1 by ELISA (RayBiotech)

[4] = test system: IL6-induced MCP-1 in PBMC cells; assay: MCP-1 production in human PBMC; format: cell-based; settings: PBMC of five healthy donors, IL6 100 ng/ml, 24 h, FIG. 7B
Experimental: Further, PBMCs were isolated from five healthy donors. The cells (5×10^5 cells/250 μl/well) were cultured with IL6 (100 ng/ml) for 24 h in a 96-well U-bottomed culture plates (Corning, Corning, N.Y.) containing RPMI1640 in the presence of anti-IL6 antibodies at different concentrations. The levels of MCP-1 in the supernatant were measured by MCP-1 ELISA kits (e Bioscience).

[5] = test system: human IL6 and other cytokines (IL6 family and non-IL6 family); assay: Specificity analysis ELISA on coated cytokines; format: binding; settings: FIGS. 3A and 3B
Experimental: Plates were coated with recombinant human IL3, IL4, IL5, IL6, IL11, IL17A, CNTF, OSM, IGF-1 (R&D Systems), IL2, FGF (Prospec), VEGF, TNF-α, EGF (Peprotech) at 2 μg/ml in 0.1M NaHCO3 buffer at 4° C. overnight. After being washed by PBS, the wells were blocked with 1% (w/v) BSA in PBS at RT for 1 h. Purified anti-IL6 antibodies in four-fold serial dilutions at a starting concentration of 2 μg/ml were placed into the wells and incubated at RT for 1 h. The plate was washed in PBS containing 0.1% (w/v) Tween 20 and then probed with HRP-labeled goat anti-human IgG (KPL) diluted 1:10,000 in 1% BSA-PBS for 40 min at RT. The plate was again washed and a TMB substrate solution was added to develop color. Stop solution (1M H2SO4) was then added and the absorption at 450 nm quantitated using VERSA max (Molecular Devices).
An ELISA assay as described herein was performed to confirm the binding specificity of high-affinity anti-IL6 antibodies described herein. Briefly, plates were coated with different cytokines as indicated in FIG. 3A (IL6 family cytokines) and FIG. 3B (non-IL6 family cytokines) and the binding activities of the FB704 antibody clone (i.e. Ag1-4-6) to those cytokines were examined.

[6] = test system: hIL6-induced angiogenesis; assay: Matrigel angiogenesis assay; format: in vivo, mice; settings: listed as FB704
Experimental: Liquid matrigel (BD Biosciences) was maintained at 4° C. hIL6 recombinant protein (R&D Systems) was added to Matrigel to a final concentration of 100 ng/0.5 ml. […] Then, the mice were treated with anti-IL6 IgG antibodies or a control IgG antibody through intravenous injection. On day 6, the mice were euthanized by CO2 asphyxiation. Matrigel plugs were removed, weighed and photographed. To measure hemoglobin levels, the Matrigel plug was lysed with a lysis buffer (1% SDS, 0.5% Triton in PBS) overnight at 4° C. The hemoglobin contents of the plugs were quantitated using Drabkin's reagent (Sigma). The concentrations of hemoglobin in the plugs were determined using a standard curve of bovine hemoglobin (Sigma). Hemoglobin contents were indicated as micrograms hemoglobin per gram Matrigel. Mean+SD were calculated using the Student's unpaired t test; p<0.05 was considered as statistically significant.
The anti-angiogenic ability of FB704 was examined in an in vivo matrigel model as described herein. Six days after the treatment, the mice were scarified mice and hemoglobin concentrations were measured. […] (FIG. 4B).

T1 sequence (P05231 30-212): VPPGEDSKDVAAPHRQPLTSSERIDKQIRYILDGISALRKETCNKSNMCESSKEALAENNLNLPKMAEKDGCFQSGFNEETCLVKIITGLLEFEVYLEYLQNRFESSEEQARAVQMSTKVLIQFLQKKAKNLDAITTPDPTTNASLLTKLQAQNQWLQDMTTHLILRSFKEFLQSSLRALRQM

Molecule | Ki-67 positive cell rate (BxPC-3 tumor) [%] | total body weights (cachexia) [2] | dissociation rate constants (kd) (recombinant human IL6) [s⁻¹] | Ka (recombinant human IL6) [M⁻¹ s⁻¹] | Kd (recombinant human IL6) [s⁻¹] | inhibition of IL6+sIL6R induced MCP-1 secretion [3] | inhibition of sICAM-1 production [3] | suppression of phosphorylated-STAT3 signaling [1] | suppression of MCP-1 production [4] | also measured
O=C1[O][Pt]2([NH][C@@H]3CCCC[C@H]3[NH]2)[O]C1=O [Oxaliplatin, reference compound] | 14 | – | – | – | – | – | – | – | – | –
Actemra: anti-IL6 receptor humanized antibody, FDA-approved for rheumatoid arthritis, used as a control [reference compound] | – | remained stable | – | – | – | – | – | – | – | STAT3 phosphorylation inhibition percentage of control ([1]; Ab concentration 0.05 μg/ml): 0%; STAT3 phosphorylation inhibition percentage of control ([1]; Ab concentration 0.5 μg/ml): 17%; symptom-free survival of PC3 tumor-bearing mice [2]: significantly prolonged symptom-free survival
1-4-62: parent fully-human anti-IL6 antibody clone; HC CDR3 SEQ ID NO: 6, LC CDR3 SEQ ID NO: 13 (antibody, V domains shown) VH: EVQLVESGPALVKPTQTLTLTCTFSGFSLSTGGMSVSWIRQPPGKALEWLARIDWDDDKFYTPSLKTRLTISRDTSKNQVVLIMTNMDPVDTATYYCARMHIDDSNGYYSDAFHIWGQGTMVTVSS VL: EIVLTQSPATLSVSPGERVTLSCRDSQSVSSTSLAWYQQKSGQAPRLLIYDTSNRATGIPARFSGGGSGTDFTLTISSLEPEDFAVYYCLVRNNWPPRFTFGQGTKVEIK | – | – | 0.00166 | 438000 | 0.00166 | – | – | – | – | –
HAg1T-3-10: affinity-matured fully-human anti-IL6 antibody; HC CDR3 SEQ ID NO: 16, LC CDR3 SEQ ID NO: 15 (antibody, V domains shown) VH: EVQLVESGPALVKPTQTLTLTCTFSGFSLSTGGMSVSWIRQPPGKALEWLARIDWDDDKFYTPSLKTRLTISRDTSKNQVVLIMTNMDPVDTATYYCARMHIDDSNGYFSDAFHIWGQGTMVTVSS VL: EIVLTQSPATLSVSPGERVTLSCRDSQSVSSTSLAWYQQKSGQAPRLLIYDTSNRATGIPARFSGGGSGTDFTLTISSLEPEDFAVYYCSFVSRPYPRFTFGQGTKVEIK | – | – | 0.0006 | 2.24e+06 | 0.0006 | in a dose dependent manner | in a dose dependent manner | at a level greater than Actemra | inhibited MCP-1 production in a dose dependent manner | inhibition of IL6+sIL6R induced MCP-1 secretion ([3]; listed as Hag1T-3-10): inhibited; inhibition of sICAM-1 production ([3]; listed as Hag1T-3-10): at a level greater than Actemra; suppression of phosphorylated-STAT3 signaling ([1]; listed as HAgT1-3-10): suppressed the STAT3 signaling at a much greater level as compared to control antibody Actemra
Ag1-4-6: affinity-matured fully-human anti-IL6 antibody; HC CDR3 SEQ ID NO: 6, LC CDR3 SEQ ID NO: 15 (antibody, V domains shown) VH: EVQLVESGPALVKPTQTLTLTCTFSGFSLSTGGMSVSWIRQPPGKALEWLARIDWDDDKFYTPSLKTRLTISRDTSKNQVVLIMTNMDPVDTATYYCARMHIDDSNGYYSDAFHIWGQGTMVTVSS VL: EIVLTQSPATLSVSPGERVTLSCRDSQSVSSTSLAWYQQKSGQAPRLLIYDTSNRATGIPARFSGGGSGTDFTLTISSLEPEDFAVYYCSFVSRPYPRFTFGQGTKVEIK | 16 | remained stable | – | 1.61e+06 | 0.00121 | in a dose dependent manner; also recorded: inhibited | in a dose dependent manner; also recorded: at a level greater than Actemra | at a level greater than Actemra; also recorded: suppressed the STAT3 signaling at a much greater level as compared to control antibody Actemra | inhibited MCP-1 production in a dose dependent manner | binding activity to coated cytokines (specificity) [5]: high binding activity to human IL6 protein but not to other cytokines; tumor cell infiltration in liver ([2]; gross necropsy, FIG. 5C): moderate tumor cell infiltration; vessel density / CD31 staining on tumor sections ([2]; immunohistochemistry, vs PBS, FIGS. 5D and 5E): significantly decreased; symptom-free survival of PC3 tumor-bearing mice ([2]; listed as FB704): significantly prolonged symptom-free survival; also recorded: significantly better efficacy than Actemra; also recorded: significant better efficacy than Actemra; inhibition of IL6-induced angiogenesis in matrigel plugs ([6]; 6 days after treatment, FIG. 4A): observable difference in color and vessel density; also recorded: inhibited angiogenesis; hemoglobin concentrations in matrigel plugs ([6]; day 6, compared with hIL6, FIG. 4B): significantly reduced the hemoglobin concentrations; also recorded: significantly changed the hemoglobin concentrations

From patent publication US10370443B2, “Method of treating autoimmune disease by administering antibodies to interleukin-6” (Fountain Biopharma Inc., priority 2012, dated 2019)
